Experimental data from patent US20160136234A1.

Experiments:
Assay in all cases: cell-based or functional assay
[1] = biological target: MEK1 (h) (human) (UniProt Q02750)
[2] = biological target: T1, DDR2 (h) (human) (UniProt Q16832)
T1 sequence (looked up): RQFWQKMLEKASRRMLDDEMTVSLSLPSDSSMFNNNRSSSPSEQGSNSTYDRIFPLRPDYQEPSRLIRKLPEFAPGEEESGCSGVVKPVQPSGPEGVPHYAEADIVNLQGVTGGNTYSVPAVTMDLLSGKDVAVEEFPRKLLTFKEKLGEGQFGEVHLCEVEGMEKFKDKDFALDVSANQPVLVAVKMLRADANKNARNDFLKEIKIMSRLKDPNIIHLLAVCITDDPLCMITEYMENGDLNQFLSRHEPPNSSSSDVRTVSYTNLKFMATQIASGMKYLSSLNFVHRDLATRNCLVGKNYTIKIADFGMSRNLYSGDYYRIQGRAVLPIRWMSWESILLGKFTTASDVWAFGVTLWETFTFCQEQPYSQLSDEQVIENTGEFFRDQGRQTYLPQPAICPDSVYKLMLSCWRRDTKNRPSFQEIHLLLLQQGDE

[3] = biological target: IRR (h) (human) (UniProt P14616)
IRR (h) (human), sequence (P14616 944-1297 limits assumed): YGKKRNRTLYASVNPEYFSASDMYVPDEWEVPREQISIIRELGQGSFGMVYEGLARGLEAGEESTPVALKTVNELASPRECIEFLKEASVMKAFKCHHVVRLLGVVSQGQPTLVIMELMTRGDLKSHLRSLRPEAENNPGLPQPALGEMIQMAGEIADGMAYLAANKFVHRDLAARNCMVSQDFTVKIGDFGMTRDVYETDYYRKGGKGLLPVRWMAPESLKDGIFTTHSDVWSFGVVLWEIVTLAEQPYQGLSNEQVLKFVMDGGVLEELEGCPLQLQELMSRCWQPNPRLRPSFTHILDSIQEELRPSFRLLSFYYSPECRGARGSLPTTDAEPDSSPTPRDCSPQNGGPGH

[4] = biological target: PKCθ (h) (human) (UniProt Q04759)
[5] = biological target: T2, MST1 (h) (human) (UniProt Q13043)
T2 sequence (looked up): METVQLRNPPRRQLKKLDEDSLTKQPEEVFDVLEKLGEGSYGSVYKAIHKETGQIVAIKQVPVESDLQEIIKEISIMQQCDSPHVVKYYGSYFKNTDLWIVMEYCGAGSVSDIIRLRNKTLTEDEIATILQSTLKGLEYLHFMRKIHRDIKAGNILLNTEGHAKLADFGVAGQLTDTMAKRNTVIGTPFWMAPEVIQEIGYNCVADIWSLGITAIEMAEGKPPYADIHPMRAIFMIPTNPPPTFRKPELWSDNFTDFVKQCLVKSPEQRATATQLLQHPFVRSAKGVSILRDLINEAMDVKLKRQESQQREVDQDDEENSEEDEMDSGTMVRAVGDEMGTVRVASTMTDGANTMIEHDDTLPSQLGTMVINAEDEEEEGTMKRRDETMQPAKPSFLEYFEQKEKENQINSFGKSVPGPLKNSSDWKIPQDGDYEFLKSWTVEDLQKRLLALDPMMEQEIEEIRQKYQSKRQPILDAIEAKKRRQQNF

[6] = biological target: Fyn (h) (human) (UniProt P06241)
[7] = biological target: IR (h) (human) (UniProt P06213)
IR (h) (human), sequence (P06213 1005-1310 limits assumed): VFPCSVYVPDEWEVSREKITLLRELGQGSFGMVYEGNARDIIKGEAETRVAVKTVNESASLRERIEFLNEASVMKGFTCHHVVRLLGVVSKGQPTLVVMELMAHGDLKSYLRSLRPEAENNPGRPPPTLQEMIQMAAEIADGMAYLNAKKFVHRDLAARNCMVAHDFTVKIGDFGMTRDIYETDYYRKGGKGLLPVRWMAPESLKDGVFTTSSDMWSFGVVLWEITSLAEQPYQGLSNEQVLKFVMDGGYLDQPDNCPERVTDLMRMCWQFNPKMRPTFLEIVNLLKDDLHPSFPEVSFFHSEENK

[8] = biological target: PKBγ (h) (human) (UniProt Q9Y243)
PKBγ (h) (human), sequence (Q9Y243 whole entry): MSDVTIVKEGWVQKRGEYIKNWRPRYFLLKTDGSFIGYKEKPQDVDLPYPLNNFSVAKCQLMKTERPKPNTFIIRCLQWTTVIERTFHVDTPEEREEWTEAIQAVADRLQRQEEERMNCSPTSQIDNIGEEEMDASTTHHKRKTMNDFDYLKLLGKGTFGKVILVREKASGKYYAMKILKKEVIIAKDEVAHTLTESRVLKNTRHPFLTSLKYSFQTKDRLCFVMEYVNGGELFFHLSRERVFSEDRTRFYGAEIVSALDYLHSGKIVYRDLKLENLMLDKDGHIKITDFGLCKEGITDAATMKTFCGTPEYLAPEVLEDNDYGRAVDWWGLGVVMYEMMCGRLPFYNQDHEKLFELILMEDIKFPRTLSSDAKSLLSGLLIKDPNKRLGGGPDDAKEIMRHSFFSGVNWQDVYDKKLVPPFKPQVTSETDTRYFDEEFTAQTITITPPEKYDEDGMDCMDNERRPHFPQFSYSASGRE

[9] = biological target: T3, Ret (h) (human) (UniProt P07949)
T3 sequence (looked up): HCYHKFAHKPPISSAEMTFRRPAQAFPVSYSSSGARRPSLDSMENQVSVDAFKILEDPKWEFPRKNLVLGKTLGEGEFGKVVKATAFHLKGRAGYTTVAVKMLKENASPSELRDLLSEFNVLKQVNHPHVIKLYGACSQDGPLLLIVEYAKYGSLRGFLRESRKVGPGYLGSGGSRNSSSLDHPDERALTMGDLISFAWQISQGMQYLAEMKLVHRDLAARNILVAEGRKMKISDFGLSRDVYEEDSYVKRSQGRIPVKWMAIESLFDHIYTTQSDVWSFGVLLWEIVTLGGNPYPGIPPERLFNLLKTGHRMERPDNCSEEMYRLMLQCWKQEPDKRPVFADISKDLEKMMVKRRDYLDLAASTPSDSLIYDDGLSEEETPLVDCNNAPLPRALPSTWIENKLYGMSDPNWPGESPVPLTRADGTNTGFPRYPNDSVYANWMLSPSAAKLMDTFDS

[10] = biological target: PKCδ (h) (human) (UniProt Q05655)
[11] = biological target: MKK7β (h) (human) (UniProt O14733)
[12] = biological target: CHK2(I157T) (h) (human) (UniProt O96017)
CHK2(I157T) (h) (human), sequence (O96017 5-543 I157T limits assumed): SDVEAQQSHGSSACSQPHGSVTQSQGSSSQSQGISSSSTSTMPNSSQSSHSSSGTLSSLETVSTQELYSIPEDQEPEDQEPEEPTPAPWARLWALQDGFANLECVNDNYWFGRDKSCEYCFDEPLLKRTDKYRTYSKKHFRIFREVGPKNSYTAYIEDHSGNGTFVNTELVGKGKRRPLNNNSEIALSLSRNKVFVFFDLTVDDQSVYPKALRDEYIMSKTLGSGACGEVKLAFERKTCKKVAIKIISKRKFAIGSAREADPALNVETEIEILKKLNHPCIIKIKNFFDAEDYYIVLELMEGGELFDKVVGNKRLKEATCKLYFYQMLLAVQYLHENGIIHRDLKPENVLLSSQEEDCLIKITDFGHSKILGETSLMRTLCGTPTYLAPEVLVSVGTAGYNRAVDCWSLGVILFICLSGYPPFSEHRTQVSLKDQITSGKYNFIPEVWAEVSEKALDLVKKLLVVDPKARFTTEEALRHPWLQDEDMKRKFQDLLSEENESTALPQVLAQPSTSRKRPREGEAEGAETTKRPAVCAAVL

[13] = biological target: MARK1 (h) (human) (UniProt Q9P0L2)
[14] = biological target: T4, PKCµ (h) (human) (UniProt Q15139)
T4 sequence (looked up): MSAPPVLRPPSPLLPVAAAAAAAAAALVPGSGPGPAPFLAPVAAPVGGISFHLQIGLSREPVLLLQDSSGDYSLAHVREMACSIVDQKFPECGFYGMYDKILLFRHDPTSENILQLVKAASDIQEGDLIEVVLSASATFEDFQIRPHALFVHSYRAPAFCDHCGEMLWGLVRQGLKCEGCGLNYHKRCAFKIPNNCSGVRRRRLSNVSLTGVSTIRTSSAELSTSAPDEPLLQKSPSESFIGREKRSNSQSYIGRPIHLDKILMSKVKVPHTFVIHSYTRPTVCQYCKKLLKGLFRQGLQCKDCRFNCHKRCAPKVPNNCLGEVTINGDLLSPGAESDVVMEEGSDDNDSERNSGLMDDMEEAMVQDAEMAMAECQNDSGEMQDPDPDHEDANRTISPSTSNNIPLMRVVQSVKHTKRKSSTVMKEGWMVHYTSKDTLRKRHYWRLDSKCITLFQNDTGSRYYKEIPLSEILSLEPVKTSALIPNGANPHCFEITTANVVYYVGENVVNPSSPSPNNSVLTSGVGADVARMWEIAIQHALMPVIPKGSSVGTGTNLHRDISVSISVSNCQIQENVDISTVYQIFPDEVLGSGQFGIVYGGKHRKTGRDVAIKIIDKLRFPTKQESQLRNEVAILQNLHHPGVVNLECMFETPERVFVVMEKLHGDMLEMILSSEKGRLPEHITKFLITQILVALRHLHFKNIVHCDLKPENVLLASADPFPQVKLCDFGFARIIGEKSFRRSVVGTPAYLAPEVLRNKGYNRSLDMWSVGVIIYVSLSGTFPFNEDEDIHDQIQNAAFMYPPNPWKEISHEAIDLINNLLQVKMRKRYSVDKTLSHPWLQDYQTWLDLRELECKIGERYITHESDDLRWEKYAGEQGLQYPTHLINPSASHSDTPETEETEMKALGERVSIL

[15] = biological target: IR (h), activated (human) (UniProt P06213)
IR (h), activated (human), sequence (P06213 1005-1310 limits assumed): as the sequence (P06213 1005-1310 limits assumed) above

[16] = biological target: JNK2α2 (h) (human) (UniProt P45984)
[17] = biological target: Mnk2 (h) (human) (UniProt Q9HBH9)

% activity at 100 µM [1]: 77%
% activity at 100 µM [2]: 94%
% activity at 100 µM [3]: 8%
% activity at 100 µM [4]: 88%
% activity at 100 µM [5]: 14%
% activity at 100 µM [6]: 74%
% activity at 100 µM [7]: 96%
% activity at 100 µM [8]: 20%
% activity at 100 µM [9]: 140%
% activity at 100 µM [10]: 101%
% activity at 100 µM [11]: 100%
% activity at 100 µM [12]: 43%
% activity at 100 µM [13]: 132%
% activity at 100 µM [14]: 22%
% activity at 100 µM [15]: 79%
% activity at 100 µM [16]: 98%
% activity at 100 µM [17]: 89%
Substance: MMI-0300 (peptide)
